Experiment [1] concerns the target CryB, GAL4 binding domain fusion (pGBK-T7-cryB) (Rhodobacter sphaeroides). Briefly: two-hybrid.
Experiment [2] has as its target His-CryB, purified from E. coli (Rhodobacter sphaeroides). Briefly: MST.
Experiment [3] addresses CryB, GAL4 binding domain fusion (pGBK-T7-cryB) (Rhodobacter sphaeroides). The experiment in a line: two-hybrid. This is another data set of the same source.

Read-outs that look alike come from different tables or passages of the source.

“SCHIC domain of AppA, GAL4 activation domain fusion (pGAD-T7) (domain or fragment)”: the β-galactosidase activity, percent of the SV40 T antigen + p53 control in experiment [1] stood at 8%.

B1: MBP-AppA (full-length AppA tagged with maltose-binding protein) (natural protein)
chain: MQHDLEADVTMTGSDLVSCCYRSLAAPDLTLRDLLDIVETSQAHNARAQLTGALFYSQGVFFQWLEGRPAAVAEVMTHIQRDRRHSNVEILAEEPIAKRRFAGWHMQLSCSEADMRSLGLAESRQIVTVGRSLVADNTNIFSFDRIAAVRRFLSDVCAARTLAPDTPVEADTFALYALTEAQAGRSGRAKAVARLSDLLSTDPLGRLTEVEELLRAHAPTAADFARLFEACAERLTRALAEDRISRMQVTLAYSALQMALRRIHHLPDPQKSVGAVLVAGVPGHKPILEAALAAEMLRAVGWSTSVVHPESVAALAARLKTSRTSTLVVAPSLLEGTEQEADTLRFVSALRARTDLPGLSILVGGRLAQLPPSKLKDSGADAGFAHLALLPAALARVACPANADCCSMRACRMPASQCCDKRINPEFLLANVMPSVLTRISSRQDRRRSA
As to B1, the Kd in experiment [2] turned out to be 595 nM.

B2: AppA full length, GAL4 activation domain fusion (pGAD-T7-appA) (natural protein)
chain: B1 chain
For B2, the β-galactosidase activity, percent of the SV40 T antigen + p53 control in experiment [3] was determined as 40%.

(Values after PMC3401432.)
